By Km is commonly meant the concentration of substrate that gives half-maximal velocity. Broadly, the kcat is the maximal rate divided by the concentration of active sites.

Our source for the Km and kcat values is paper PMC12594388, “Enzymatic properties of a L-asparaginase without secondary glutaminase activity from Streptomyces scabrisporus” (PLOS One, 2025).

Substrate in data set [1]: NC(=O)C[C@H](N)C(=O)O
The experiment in a line: Nessler ammonium assay, Michaelis-Menten fit. To be noted: physiological pH (printed as pH 7 and as phosphate pH 7.4), 37 °C. The format is biochemical, Rhizobium etli.

Substrate in data set [2]: NC(=O)C[C@H](N)C(=O)O
The data set can be described thus: Nessler ammonium assay, Michaelis-Menten fit. The format is biochemical, Embleya scabrispora. To be noted: pH 10 (optimum), 37 °C, 0.5-20 mM asparagine. An excerpt:
Nessler ammonium assay, Michaelis-Menten fit on S. scabrisporus L-asparaginase

B1: R. etli L-asparaginase (Rhizobium etli CFN 42) (protein)
chain: MTPSEDFVVTDRGGIVENSHRVHAAVVDAKGRLLYALGNPTRMTLARSAAKPAQALAILETEGVAGYGFDDADIALMCASHSSEDRHIARTRAMLSKIKAEEADLRCGGHPSLSEMVNRSWIKQDFIPTAVCSNCSGKHVGMLAGARAIGAGTDGYHLPDHPMQGRVKRTVAELCDLDAGDVEWGTDGCNLPTPAFPLDRLGRIYAKLASAADGSDAGEGQSTRCAALAHIFRAMARHPEMVAGEGRYCTMLMRAFDGALVGKLGADASYAIGVRASDATRQLGTDGALGISVKIEDGNLEMLYAVVTELLERLGIGSPDVRSQLASFHHPQRVNTMGVTTGGVSFPFKLRGSKSNVDDPRLAAVAR
notes: pET28a (NcoI/EcoRI; pET28a-AnsRe), E. coli BL21(DE3), HisTrap purified, 38 kDa
As for B1, in data set [1], the Michaelis-Menten constant (Km) came to 15.9 ± 4.7 mM and the kcat turned out to be 140.3 ± 7 s⁻¹.

B2: S. scabrisporus L-asparaginase (Embleya scabrispora) (protein)
chain: MRPEDTVPHESTTRYAELAEVVRSGFVESRHFGSLVALAPDGRPALELGVPNEPVVPRSSAKPFQALACLRAGAPLSGAHVAIAAGSHTGQDFHVDAVEDILTRSGLTFDALGCPPSRPEDEDTYQEMIARGEENTRERMNCSGKHAAMLAACVASGWPTEGYLDPGHPLQVLVREGIEELAGESVAHTAVDGCGAPVFAMTLTGLARGVRALATATTGPERVVAKAMREHPAYVGGDGQANTEVMRLLPGVLVKGGAEGVFVAATTAGHAVAVKVIDGSPRATTALALAALHRLGVDVSAASEWTTVPVLGGGLPVGEVRVTSHLG
notes: codon-optimised gene in pET28a(+) (NdeI/EcoRI; pET28a-AnsSs), E. coli BL21(DE3), HisTrap purified, 34 kDa
As to B2, in data set [2], the Michaelis-Menten constant (Km) is listed as 7.361 ± 1.78 mM and the kcat was determined as 40.8 ± 2 s⁻¹.
